Data on one molecule can be found in patent US20220378829A1 (CRISPR THERAPEUTICS, published 2022).

Some results are limits rather than exact numbers.

The target of this test is T1, CD70 on human cancer cell lines (A498, ACHN, SK-OV-3, Hs 766T, NCI-H1975, Calu-1, DU 145, SNU-1, MM.1S, HuT78) (human, UniProt P32970 1-193).
T1 sequence (looked up): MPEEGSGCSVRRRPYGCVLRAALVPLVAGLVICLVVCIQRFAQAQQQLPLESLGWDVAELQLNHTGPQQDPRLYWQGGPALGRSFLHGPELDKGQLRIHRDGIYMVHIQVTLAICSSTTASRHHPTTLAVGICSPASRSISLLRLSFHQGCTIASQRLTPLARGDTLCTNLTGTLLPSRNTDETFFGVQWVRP
Description: cell-based or functional assay.

B1: anti-CD70 CAR (CD70B scFv with 41BB), expressed on the surface of gene-edited human T cells (CTX130: TRAC-/β2M-/CD70-/anti-CD70 CAR+ T cells) (other)
chain: QVQLVQSGAEVKKPGASVKVSCKASGYTFTNYGMNWVRQAPGQGLKWMGWINTYTGEPTYADAFKGRVTMTRDTSISTAYMELSRLRSDDTAVYYCARDYGDYGMDYWGQGTTVTVSSGGGGSGGGGSGGGGSGDIVMTQSPDSLAVSLGERATINCRASKSVSTSGYSFMHWYQQKPGQPPKLLIYLASNLESGVPDRFSGSGSGTDFTLTISSLQAEDVAVYYCQHSREVPWTFGQGTKVEIKSAAAFVPVFLPAKPTTTPAPRPPTPAPTIASQPLSLRPEACRPAAGGAVHTRGLDFACDIYIWAPLAGTCGVLLLSLVITLYCNHRNRKRGRKKLLYIFKQPFMRPVQTTQEEDGCSCRFPEEEEGGCELRVKFSRSADAPAYQQGQNQLYNELNLGRREEYDVLDKRRGRDPEMGGKPRRKNPQEGLYNELQKDKMAEAYSEIGMKGERRRGKGHDGLYQGLSTATKDTYDALHMQALPPR
For B1, the “cell lysis of A498 cells by TRAC-/β2M-/CD70-/anti-CD70 CAR+ T cells, T cell:A498 ratios 1:1 and 0.5:1, 24 h (Cell titer-Glo)” value was over 90%; the “cell lysis of A498 cells by TRAC-/β2M-/anti-CD70 CAR+ T cells (2×KO), T cell:A498 ratios 1:1 and 0.5:1, 24 h (Cell titer-Glo)” value is under 90%.
